Earlier results in paper PMC3937638.

Target: His45 (UniProt position 80, RKIGFHVCAAG)
Conditions: HA8(AN)-bound Link_TSG6

In the case of “TSG-6 Link module (Link_TSG6; tumor necrosis factor-stimulated gene-6 protein, hyaluronan-binding domain) (Homo sapiens)”, the pKa is given as 5.7.
